# Assay results as given in article doi:10.1101/2020.08.16.253419v1.
# System: Nc1nc2c(ncn2[C@@H]2O[C@H](COP(=O)(O)OP(=O)(O)OP(=O)(O)O)[C@@H](O)[C@H]2O)c(=O)[nH]1
# Assay: malachite green
# Format: biochemical, Streptococcus thermophilus
# Details: 20 mM Tris pH 8.0, 200 mM KCl, 5 mM MgCl2, 37 °C
substance,measurement,value
StNFeoB (Streptococcus thermophilus LMG 18311; E66Q/E67Q),Km,187 ± 20 µM
